Data published in paper PMC6697681, “The predominance of nucleotidyl activation in bacterial phosphonate biosynthesis” (Nature Communications, 2019).

Key:
[1] = tested on: NCCP(=O)(O)O; assay: purified protein; conditions: saturating CTP (4 mM), 7 mM MgCl2, room temperature
[2] = tested on: C[N+](C)(C)CCOP(=O)([O-])O; assay: purified protein; conditions: saturating CTP (4 mM), 7 mM MgCl2, room temperature; fit with substrate inhibition

Substance	Km [1]	Km [2]	kcat [2]	kcat/Km [2]	kcat [1]
Ari-PntC (Ari1348) (Lancefieldella rimae ATCC 49626)	12 ± 1 µM	1000 ± 800 µM	0.7 ± 0.3 s⁻¹	720 M⁻¹ s⁻¹	–
Spn-LicC (Streptococcus pneumoniae R6)	318 ± 129 µM	2.36 ± 0.65 µM	1.06 ± 0.04 s⁻¹	–	0.723 ± 0.054 s⁻¹
